Measurements: patent US6924412

Target: murine dimeric IgA (mouse) (UniProt P01592)
Experiment: cell-based or functional assay

UniProt P01592, sequence (P01592 22-159): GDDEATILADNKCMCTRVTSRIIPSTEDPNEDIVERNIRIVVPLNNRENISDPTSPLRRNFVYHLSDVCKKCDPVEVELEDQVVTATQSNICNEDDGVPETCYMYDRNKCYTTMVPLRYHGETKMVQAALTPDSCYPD

- total IgA concentration in milk by ELISA, transgenic line 3644 (270-fold increased SC); control mean 292 mg/ml: 593
- total IgA level in milk by ELISA, transgenic line 3646 (60-fold elevated SC) against control mice: 1.5 times
Substance: murine polymeric immunoglobulin receptor (from UniProt O70570 19-771)
